Where no end group is shown, it is not given here.
Experiments:
PSMA Fab [1] = target: T1, PSMA Fab; experiment: phage ELISA, biotinylated PSMA Fab on neutravidin plate, bound phage detected with anti-M13-HRP
T1 construct: also called Anti-PSMA Fab; 006 PSMA Fab
Description: (§1) Clonal phage were harvested as crude supernatants and screened via standard ELISAs. […] Prior to the addition of clonal phage. wells were incubated with blocking buffer and PSMA antigen or blocking buffer alone. Without washing or aspirating, clonal phage supernatants were then added to the wells and incubated for a short time. Wells were then washed followed by detection of bound phage using a horse radish conjugated anti-M13 antibody.

PSMA Fab [2] = target: T1, PSMA Fab; experiment: phage ELISA, biotinylated PSMA Fab on neutravidin plate pre-incubated with PSMA antigen as competitor, anti-M13-HRP
Description: as §1

PSMA Fab (006 PSMA Fab) [3] = target: T2, PSMA Fab (006 PSMA Fab); experiment: clonal phage ELISA on captured PSMA Fab, wells pre-incubated with PSMA antigen as competitor (column head not shown, assumed)
T2 construct: In the phage ELISA the PSMA Fab was biotinylated and captured on neutravidin coated plates; also called Anti-PSMA Fab; anti-PSMA Fab

PSMA Fab (006 PSMA Fab) [4] = target: T2, PSMA Fab (006 PSMA Fab); experiment: clonal phage ELISA on biotinylated PSMA Fab captured on neutravidin plates, anti-M13-HRP detection;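 further: crude clonal phage supernatants added to wells preincubated with PSMA antigen or with blocking buffer only (no wash between), briefly incubated, then washed before detecting bound phage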
Description: as §1

PSMA Fab (006 PSMA Fab) [5] = target: T3, PSMA Fab (006 PSMA Fab); experiment: clonal phage ELISA; biotinylated PSMA Fab on neutravidin plate, blocking buffer alone; anti-M13-HRP detection;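 further: clonal phage applied as crude supernatants to wells preincubated with blocking buffer, binding read by ELISA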
T3 construct: also called Anti-PSMA Fab; anti-PSMA Fab
Description: as §1

PSMA Fab (006 PSMA Fab) [6] = target: T3, PSMA Fab (006 PSMA Fab); experiment: clonal phage ELISA; biotinylated PSMA Fab on neutravidin plate pre-incubated with competitor PSMA antigen; anti-M13-HRP detection
Description: as §1

006 PSMA Fab [7] = target: T4, 006 PSMA Fab; experiment: clonal phage ELISA; biotinylated PSMA Fab on neutravidin plate, anti-M13-HRP detection
T4 construct: Biotinylated and captured on neutravidin-coated plates in the phage ELISA; also called Anti-PSMA Fab
Description: as §1

006 PSMA Fab [8] = target: T4, 006 PSMA Fab; experiment: clonal phage ELISA on PSMA Fab-coated plate; competitor: PSMA antigen pre-incubated in the well
Description: as §1

Binder	Phage binding ELISA signal, Anti-PSMA Fab (PSMA Fab [1])	Phage binding ELISA signal, Anti-PSMA Fab with PSMA antigen (PSMA Fab [2])	phage binding ELISA signal (006 PSMA Fab [7])	phage binding ELISA signal in presence of PSMA (006 PSMA Fab [8])	other results
LERWCIPDWMCEWP [Phage-2394]	1.37	0.078			
YIKWCTPPWMCELM [Phage-2409]					Phage binding ELISA signal, Anti-PSMA Fab with PSMA antigen (PSMA Fab (006 PSMA Fab) [3]): 0.15; Phage binding ELISA signal, Anti-PSMA Fab (PSMA Fab (006 PSMA Fab) [4]): 1.35
GPTLCIPAWMCSGM [Phage-2326]					Phage binding ELISA signal, Anti-PSMA Fab (PSMA Fab (006 PSMA Fab) [5]): 1.45; Phage binding ELISA signal, Anti-PSMA Fab in presence of PSMA antigen (PSMA Fab (006 PSMA Fab) [6]): 0.0802
EVKWCIPEWMCMVV [Phage-2396]	1.37	0.0647			
FEHWCTPPWMCFSS [Phage-2383]			1.38	0.0713	
WVKWCTPPWMCEWD [Phage-2389]	1.38	0.123			
WEKWCTPAWMCAVA [Phage-2399]	1.37	0.0716			
VEKWCKPEWMCTSL [Phage-2386]			1.38	0.0692	
DVRWCTPPWMCVAM [Phage-2400]	1.37	0.078			
DAKWCIPDWMCYGF [Phage-2387]			1.38	0.0838	
SVHWCTPPWMCQGF [Phage-2327]					Phage binding ELISA signal, Anti-PSMA Fab (PSMA Fab (006 PSMA Fab) [5]): 1.45; Phage binding ELISA signal, Anti-PSMA Fab in presence of PSMA antigen (PSMA Fab (006 PSMA Fab) [6]): 0.0771
MGNWCIPEWMCWGT [Phage-2374]			1.4	0.0727	
HDKLCIPLWMCDGV [Phage-2377]			1.39	0.0834	
MEKWCIPSWMCVGM [Phage-2405]					Phage binding ELISA signal, Anti-PSMA Fab with PSMA antigen (PSMA Fab (006 PSMA Fab) [3]): 0.0682; Phage binding ELISA signal, Anti-PSMA Fab (PSMA Fab (006 PSMA Fab) [4]): 1.36
GEKWCIPTWMCDWT [Phage-2373]			1.4	0.0544	
VVKWCTPAWMCELQ [Phage-2397]	1.37	0.0757			
SPKWCTPSWMCELQ [Phage-2392]	1.38	0.06			
TVKWCVPPWMCSVP [Phage-2407]					Phage binding ELISA signal, Anti-PSMA Fab with PSMA antigen (PSMA Fab (006 PSMA Fab) [3]): 0.0764; Phage binding ELISA signal, Anti-PSMA Fab (PSMA Fab (006 PSMA Fab) [4]): 1.36
HTTWCTPAWMCQGF [Phage-2404]	1.36	0.0895			
IPKWCTPVWMCAGF [Phage-2385]			1.38	0.0806	

Binder	Phage binding ELISA signal, Anti-PSMA Fab (PSMA Fab [1])	Phage binding ELISA signal, Anti-PSMA Fab with PSMA antigen (PSMA Fab [2])	phage binding ELISA signal (006 PSMA Fab [7])	phage binding ELISA signal in presence of PSMA (006 PSMA Fab [8])	other results
PDKWCIPQWMCDIT [Phage-2376]			1.39	0.0617	
FPKWCTPSWMCDFV [Phage-2391]	1.38	0.0984			
FGISCTPSWMCEGF [Phage-2398]	1.37	0.0988			
VMKWCTPEWMCQVF [Phage-2402]	1.37	0.0622			
FYKWCTPEWMCTVN [Phage-2384]			1.38	0.138	
VDKWCIPAWMCVSA [Phage-2328]					Phage binding ELISA signal, Anti-PSMA Fab (PSMA Fab (006 PSMA Fab) [5]): 1.45; Phage binding ELISA signal, Anti-PSMA Fab in presence of PSMA antigen (PSMA Fab (006 PSMA Fab) [6]): 0.0715
VDHWCTPEWMCVMM [Phage-2408]					Phage binding ELISA signal, Anti-PSMA Fab with PSMA antigen (PSMA Fab (006 PSMA Fab) [3]): 0.0963; Phage binding ELISA signal, Anti-PSMA Fab (PSMA Fab (006 PSMA Fab) [4]): 1.36
VQKWCIPPWMCQIS [Phage-2380]			1.39	0.0907	
VFHLCMPPWMCSQD [Phage-2390]	1.38	0.0997			
ASMWCIPPWMCAED [Phage-2395]	1.37	0.085			
MQHWCVPPWMCQSL [Phage-2401]	1.37	0.082			
LGIWCIPEWMCVSA [Phage-2381]			1.39	0.0793	
LHKWCTPAWMCEVP [Phage-2379]			1.39	0.0904	
VVKWCIPTWMCQTL [Phage-2378]			1.39	0.101	
DFMRCTPEWMCTGF [Phage-2382]			1.39	0.0663	
DGKWCIPPWMCAMA [Phage-2375]			1.4	0.0859	
TIKWCTPPWMCIMN [Phage-2388]			1.38	0.103	
IEKWCIPQWMCGNP (cysteine pairing not given here; also: fused to phage pIII (clonal phage display)) [Phage-2403]	1.36	0.0574			
PDKWCIPQWMCSQM (cysteine pairing not given here; also: fused to phage pIII (clonal phage display)) [Phage-2406]					Phage binding ELISA signal, Anti-PSMA Fab with PSMA antigen (PSMA Fab (006 PSMA Fab) [3]): 0.0822; Phage binding ELISA signal, Anti-PSMA Fab (PSMA Fab (006 PSMA Fab) [4]): 1.36
LEKWCRPAWMCNGM [Phage-2393]	1.38	0.0594			

— patent US20260242478A1 (published 2026)
